Reference: US20240336661A1, “PEPTIDES DERIVED FROM RUMINOCOCCUS TORQUES” (University of Copenhagen, priority 2021, published 2024)

What was measured:
H9C2 cardiomyoblasts = assay: Gene expression in H9C2 cardiomyoblasts; format: cell-based; conditions: q-PCR
Method: (§1) FIG. 13. […] The cells were treated with various doses of RUCILP2, and cells were collected for q-PCR quantification on indicated genes. For integrin inhibitor treatment, cells were treated with 10 uM of cRGDyK (Selleckchem, #S7844) for 10 minutes and washed with PBS before treated with RUCILP2. Data are presented as mean+/−SEM of one representative experiment done in technical triplicate. Statistical significance was determined by unpaired two-tailed Student's t-test. *, p<0.05 vs 0 nM RUCILP2.
Commercially available H9C2 cells (ATCC, #CRL-1446) were seeded on 12-well plates under DMEM/F-12 medium (Dulbecco's Modified Eagle Medium/Nutrient Mixture F-12, Fisher Scientific, #11524436), supplemented with 10% FBS (Fetal Bovine Serum, Fisher Scientific, #11550356) and 1% Penicillin-Streptomycin (Fisher Scientific, #11548876). Cell cultures were maintained in a humidified chamber with 5% CO2 at 37° C., and culture media were changed every 2-3 days.
At 70% confluence, the cells were treated with indicated concentrations of recombinant RUCILP2, commercial recombinant irisin (Sigma, #SRP8039-10UG and Phoenix pharmaceuticals, #067-29A), and PBS for 24 h. For integrin inhibitor treatment, cells were treated with 10 μM of CycloRGDyK (Selleckchem, #S7844) for 10 minutes and washed with PBS before treated with recombinant RUCILP2, commercial recombinant irisin and PBS. […]

Caco-2 cell line = assay: Intestinal barrier gene expression in Caco-2 cells (hypoxia/reoxygenation); format: cell-based, human; conditions: Caco-2, q-PCR
Method: as §1
Commercially available Caco-2 cells (ATCC, #HTB-37) were seeded on 12-well plates under EMEM medium (Eagle's Minimum Essential Medium, ATCC, #30-2003), supplemented with 20% FBS (Fetal Bovine Serum, Fisher Scientific, #11550356) and 1% Penicillin-Streptomycin (Fisher Scientific, #11548876). Cell cultures were maintained in a humidified chamber with 5% CO2 at 37° C., and culture media were changed every 2-3 days.
At 70% confluence, to induce the hypoxia/reoxygenation (H/R) cell culture model, Caco-2 cells were cultured in EMEM medium (glucose and FBS free) and exposed to hypoxia conditions (94% N2, 5% C02 and 1% O2) at 37° C. for 120 minutes. Next, cells were treated for 24 hours with indicated concentrations of recombinant RUCILP2 or commercial recombinant irisin (Sigma, #SRP8039-10UG and Phoenix pharmaceuticals, #067-29A) or PBS immediately at the beginning of reoxygenation. […]

perfused rat colon = assay: Hormone release in the isolated perfused rat colon
From the text: (§2) FIG. 14. Recombinant RUCILP2 stimulates glucagon like peptide-1 (GLP-1) secretion in perfused rat colon when RUCILP2 is perfused through the luminal route. Left, GLP-1 secretion from the isolated perfused rat colon in the presence of RUCILP2, means±SEM, n=6 in each group. Right, baseline subtracted total GLP-1 output during 10-min (minutes 12-21) luminal infusions. **, p<0.01 using Student's t test.
as §2, with “15.” for “14.”, “Peptide-YY (PYY)” for “glucagon like peptide-1 (GLP-1)”, “PYY” for “GLP-1”
as §2, with “16.” for “14.”, “somatostatin” for “glucagon like peptide-1 (GLP-1)”, “Somatostatin” for “GLP-1”, “*, p<0.05” for “**, p<0.01”
Animals: Male Wistar rats (˜250 g) were obtained from Janvier (Le Genest-Saint-Isle, France) and housed with two to four rats per cage. Rats were allowed one week of acclimatization kept on a 12:12 h light/dark cycle with ad libitum access to water and standard chow.
Isolation and perfusion of the proximal rat colon: At the day of experiment, non-fasted rats were anaesthetized with a subcutaneous injection of Hypnorm/Midazolam (0.0158 mg fentanyl citrate+0.5 mg fluanisone+0.25 mg midazolam/100 g). When lack of reflexes was established, rats were placed on a heating plate (37° C.) and the abdominal cavity opened. […] A plastic tube was placed in the lumen of the colon, and the colon was gently flushed with isotonic saline (room temperature) to remove luminal contents. Throughout the experimental protocol, a constant luminal flow of saline was applied via a syringe pump (0.15 ml/min). […] A metal catheter was inserted into vena portae to collect the venous effluent. […] As an indicator of health of the colon, perfusion pressure was monitored throughout the experiment. […]
Hormone measurement: Peptide hormones were measured using in-house radioimmunoassays: total GLP-1 (the sum of 7-36NH2, 9-36NH2 and potential mid-terminal cleaved fragments) was measured using a C-terminal specific antibody targeting amidated forms of GLP-1 (code no. 89390). Total PYY (PYY1-36+PYY3-36) was measured with a porcine antiserum (cat. no T-4093; Bachem). Somatostatin was measured using a side-viewing antibody (code no. 1758-5), detecting all bioactive forms of somatostatin.

B1: RUCILP2: 87 amino acid irisin-like polypeptide cleaved from the Ruminococcus torques FNDC5-like protein RUMTOR_00181; recombinant, 6-His-tagged from E. coli (protein)
chain: APVDVKVSEITETSAKASWKNAADGKEAAGYNVYVDGVKLNKELLTEASCGLTNLKAETTYFVEVTAVDAAGNESVKSEKVTFKTLK
modifications: 6-His tag; Ruminococcus torques
notes: 87 amino acid irisin-like polypeptide cleaved from the Ruminococcus torques FNDC5-like protein RUMTOR_00181; recombinant, 6-His-tagged from E. coli
B1 was tested, and the “gene expression in H9C2 cardiomyoblasts (markers of cardiomyogenesis)” value (H9C2 cardiomyoblasts) was “stimulate gene expression”, the “expression of genes involved in intestinal integration” value (Caco-2 cell line) was “increases expression” and the “gut luminal release of Glucagon-like-peptide-2 (GLP-2)” value (perfused rat colon; luminal infusion) was “stimulatory effects”. The GLP-1 secretion (perfused rat colon; luminal perfusion) was “stimulates”, the “Peptide-YY (PYY) secretion” value (perfused rat colon; luminal perfusion) was “stimulates” and the somatostatin secretion (perfused rat colon; luminal perfusion) was “stimulates”.
